Holding throughout (assay): high-throughput RNA pulldown from lysate on Ni-NTA beads; HRP: 50 mM Tris pH 8, 150 mM NaCl, 1 mM beta-mercaptoethanol, 50 ug/ml BSA, 3 ug/ml yeast RNA, 0.5% heparin; ITC and FP: Tris pH 8, 200 mM KCl, 5% glycerol; MST: 50 mM Tris pH 8, 200 mM NaCl, 1 mM DTT, BSA, heparin, 0.05% Tween 20
What all share (details): tags: N-terminal His-eGFP

For series [1], the target named is T1, GFP-9S library array, motif 4 ND N98C;D124Q (synthetic construct, N98C;D124Q).
T1 chain: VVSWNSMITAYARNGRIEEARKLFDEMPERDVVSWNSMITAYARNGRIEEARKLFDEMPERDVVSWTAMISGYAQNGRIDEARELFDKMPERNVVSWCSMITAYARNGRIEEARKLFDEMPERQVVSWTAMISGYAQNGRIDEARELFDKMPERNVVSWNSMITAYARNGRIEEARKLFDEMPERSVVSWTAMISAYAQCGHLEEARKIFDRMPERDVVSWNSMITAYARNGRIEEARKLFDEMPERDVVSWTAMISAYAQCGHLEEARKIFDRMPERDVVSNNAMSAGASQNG

Series [2] deals with T2, GFP-9S library array, motif 4 ND N98E;D124M (synthetic construct, N98E;D124M).
T2 chain: T1 chain with C98E, Q124M

For series [3], the target named is T3, GFP-9S library array, motif 4 ND N98S;D124T (synthetic construct, N98S;D124T).
T3 chain: T1 chain with C98S, Q124T

Series [4] deals with T4, GFP-9S library array, motif 4 ND N98P;D124Y (synthetic construct, N98P;D124Y).
T4 chain: T1 chain with C98P, Q124Y

Series [5] has as its target T5, GFP-9S library array, motif 4 ND N98P;D124C (synthetic construct, N98P;D124C).
T5 chain: T1 chain with C98P, Q124C

Residue numbers refer to the chain shown, from its start.

Among the data in article PMC8809517, “Cofactor-independent RNA editing by a synthetic S-type PPR protein” are Kd values, retold here.

One may read the Kd as the free concentration of one partner at which half of the binding sites on the other are occupied at equilibrium, for simple one-to-one binding. Read a low Kd as tighter binding.

Consider AUUAAACGUGA (ssRNA) [IR-rpoA-A], for which the Kd in series [1] (label: 5' IRDye 800CW) amounted to 177 nM; in series [2] (label: 5' IRDye 800CW), 360 nM; in series [3] (label: 5' IRDye 800CW) it was 72.3 nM; in series [4] (label: 5' IRDye 800CW) it was 416 nM; in series [5] (label: 5' IRDye 800CW), 660 nM.

For the molecule AUUAUACGUGA (ssRNA) [IR-rpoA-U], the Kd in series [1] (label: 5' IRDye 800CW) was found to be 143 nM; in series [2] (label: 5' IRDye 800CW), 206 nM; in series [3] (label: 5' IRDye 800CW), 108 nM; in series [4] (label: 5' IRDye 800CW) it was 299 nM; in series [5] (label: 5' IRDye 800CW) it was 874 nM.

For the molecule AUUACACGUGA (ssRNA) [Cy5-rpoA], the Kd was determined as 127 nM in series [1] (label: 5' Cy5); 105 nM in series [2] (label: 5' Cy5); 187 nM in series [3] (label: 5' Cy5); 146 nM in series [4] (label: 5' Cy5); 332 nM in series [5] (label: 5' Cy5).

On to AUUAGACGUGA (ssRNA) [Cy5-rpoA-G], for which the Kd in series [1] (label: 5' Cy5) was determined as 150 nM; in series [2] (label: 5' Cy5), 136 nM; in series [3] (label: 5' Cy5) it was 291 nM; in series [4] (label: 5' Cy5), 168 nM; in series [5] (label: 5' Cy5) it was 297 nM.
